Assays:
F-11 cells = settings: DRG-like F-11 cells; cited from earlier work
rat PTH2R [1] = biological target: rat PTH2R (rat, UniProt P70555 25-546); experiment: cell-based or functional assay
human PTH2R [2] = biological target: T1, human PTH2R (Homo sapiens, UniProt P49190); experiment: cAMP SPA assay for PTH2R activation, human PTH2R; assay type: cell-based; settings: HEK293 cells expressing human PTH2R, FIG. 4B
T1 construct: expressed in transfected cells
Text: (§1) HEK293 cells were transfected with rat and human PTH2R and cell lines that stably express the receptors were established and evaluated. One cell line was selected for each rat and human PTH2R and used for all the functional assays. Specifically, HEK293 cells were transfected with pCDNA3.1/V5-His-RatPTH2R plasmid DNA and pCDNA3.1-E/Uni-lacZ-HumanPTH2R plasmid DNA using FuGENE 6 transfection reagent (Roche Molecular Biochemicals). Three days after transfection, cells were put under selection with 800 μg/ml geneticin (G418, Gibco BRL). After three weeks of selection, single colonies were cloned using cloning cylinders. Cloned colonies were scaled up to T25 flasks. More than 10 cell lines for each plasmid were tested for function in the cAMP SPA assay.
(§2) HEK293PTH2R cells were seeded in a 96-well poly-D-lysine coated plate at 100,000 cells per well and cultured overnight. After washing with 200 μl of PBS and treating with 100 μl of 300 nM IBMX in assay medium (MEM without phenol red and FBS) at 37° C. for 10 min. The assay medium was then aspirated and the cells were washed with PBS. The cellular of cAMP was measured using cAMP SPA Direct Screening (Amersham/Pharmacia RPA559). Each concentration of ligand was repeated as triplicate.

rat PTH2R [3] = biological target: T2, rat PTH2R (Rattus norvegicus, UniProt P70555); experiment: cAMP SPA assay for PTH2R activation, rat PTH2R; assay type: cell-based; settings: HEK293 cells expressing rat PTH2R, FIG. 4A
T2 construct: V5-His (appears only in the vector name); expressed in transfected cells
T2 sequence (P70555 25-546): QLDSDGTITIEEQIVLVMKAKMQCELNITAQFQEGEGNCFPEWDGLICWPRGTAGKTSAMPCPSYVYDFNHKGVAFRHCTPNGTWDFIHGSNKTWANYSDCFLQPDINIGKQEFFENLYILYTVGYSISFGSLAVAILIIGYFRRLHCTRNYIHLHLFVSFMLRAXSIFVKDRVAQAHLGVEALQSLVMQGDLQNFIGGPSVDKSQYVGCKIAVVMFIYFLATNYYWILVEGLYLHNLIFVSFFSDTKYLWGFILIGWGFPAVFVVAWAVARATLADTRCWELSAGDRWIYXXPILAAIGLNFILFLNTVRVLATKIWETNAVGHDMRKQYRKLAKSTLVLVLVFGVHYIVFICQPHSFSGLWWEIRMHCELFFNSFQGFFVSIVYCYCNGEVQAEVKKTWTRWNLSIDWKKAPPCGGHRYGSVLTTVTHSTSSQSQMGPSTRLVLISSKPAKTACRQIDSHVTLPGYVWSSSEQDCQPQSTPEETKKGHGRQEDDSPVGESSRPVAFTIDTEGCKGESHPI
Text: as §1, §2

rat PTH2R [4] = biological target: T2, rat PTH2R; experiment: Measurement of [Ca2+]i using the FLIPR, rat PTH2R; assay type: cell-based
Text: as §1
(§3) HEK293 cells were seeded into […] clear-base 96 well plates (BD Biocoat) coated with poly-D-lysine at a density of 100,000 cells per well in MEM, and cultured overnight.
(§4) Curve-fitting and parameter estimation were carried out using Graph Pad Prism, 3.00 (GraphPad Software Inc., California, U.S.A.).

human PTH2R [5] = biological target: T1, human PTH2R; experiment: Measurement of [Ca2+]i using the FLIPR, human PTH2R; assay type: cell-based; settings: human PTH2R expressing HEK293 cells
Text: as §1, §3, §4

human PTH2R [6] = biological target: human PTH2R (human, UniProt P49190 25-550); experiment: cell-based or functional assay
Chain of human PTH2R (human, UniProt P49190 25-550) (P49190 25-550): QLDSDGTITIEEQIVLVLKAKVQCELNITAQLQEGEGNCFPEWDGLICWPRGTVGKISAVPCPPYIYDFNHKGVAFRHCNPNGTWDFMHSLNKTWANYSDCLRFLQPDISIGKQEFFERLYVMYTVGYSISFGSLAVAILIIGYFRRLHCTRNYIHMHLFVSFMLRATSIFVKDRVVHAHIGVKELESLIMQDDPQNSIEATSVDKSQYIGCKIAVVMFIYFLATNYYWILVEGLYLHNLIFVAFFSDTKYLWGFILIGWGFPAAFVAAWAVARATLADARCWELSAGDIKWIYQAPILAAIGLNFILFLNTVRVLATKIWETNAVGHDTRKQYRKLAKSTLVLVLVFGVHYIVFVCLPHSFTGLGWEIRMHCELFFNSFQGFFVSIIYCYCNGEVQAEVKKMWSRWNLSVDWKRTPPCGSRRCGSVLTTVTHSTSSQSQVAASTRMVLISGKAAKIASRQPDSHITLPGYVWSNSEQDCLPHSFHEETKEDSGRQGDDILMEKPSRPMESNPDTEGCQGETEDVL

Chain of rat PTH2R (rat, UniProt P70555 25-546) (P70555 25-546): as the sequence (P70555 25-546) above
T1 sequence (P49190 25-550): as the sequence (P49190 25-550) above

bovine tuberoinfundibular peptide of 39 residues [bTIP39]
effect on cAMP (F-11 cells): increases cAMP

rat PTH(1-34) (from UniProt P04089 32-65) (peptide)
maximal level of cAMP (pmol/100,000 cells) (rat PTH2R [1]): < 29 | maximum [Ca2+]i response compared to that of human TIP39 (rat PTH2R [1]): 30%

human PTH (1-34) (from UniProt P01270 32-65) (peptide)
logEC50, cAMP increase (cAMP SPA assay) in HEK293 cells stably expressing rat PTH2R (rat PTH2R [1]): -9.3 | maximal level of cAMP (pmol/100,000 cells) (rat PTH2R [1]): < 29

human PTH(1-34)
relative potency, cAMP (human PTH2R [2]): slightly less potent than the other peptides | relative potency, cAMP (rat PTH2R [3]): slightly less potent | agonist character, [Ca2+]i response (rat PTH2R [4]; rat PTH2R expressing HEK293 cells): little response if any | agonist character, [Ca2+]i response (human PTH2R [5]): little response

rat PTH(1-34)
maximum response compared to that of human TIP39 (rat PTH2R [4]; rat PTH2R expressing cells, [Ca2+]i FLIPR): ~30% | maximum response compared to that elicited by human TIP39 (human PTH2R [5]; [Ca2+]i FLIPR): 42±2%

B1: mouse tuberoinfundibular peptide of 39 residues (peptide)
peptide: SLALADDAAFRERARLLAALERRRWLDSYMQKLLLLDAP
logEC50, [Ca2+]i increase (FLIPR) (rat PTH2R [1]): -7.3 | logEC50, cAMP increase (cAMP SPA assay) in HEK293 cells stably expressing rat PTH2R (rat PTH2R [1]): -9.9 | logEC50, [Ca2+]i increase (FLIPR) (human PTH2R [6]): -7.8 | logEC50, cAMP increase (cAMP SPA assay) in HEK293 cells stably expressing human PTH2R (human PTH2R [6]): -9.7
